Results taken from paper PMC3576620, “Endocytosis of somatodendritic NCKX2 is regulated by Src family kinase-dependent tyrosine phosphorylation” (Frontiers in Cellular Neuroscience, 2013).
Changes are numbered by the printed parent chain.

How the values were obtained:
Experiment in all cases: co-IP; HEK293 cells co-transfected with HA-AP2M1 and myc-NCKX2-loop variants; lysate (50 mM Tris-Cl pH 7.4, 150 mM NaCl, 1 mM EDTA, 0.5% Triton X-100) incubated with anti-c-myc agarose overnight at 4°C; eluted with c-myc peptide; anti-HA blot, densitometry, n = 5
Conditions in all cases: partners not purified
[1] = molecular target: T1, c-myc-tagged cytoplasmic loop of NCKX2 (myc-NCKX2-loop), wild type (rat, UniProt O54701-1 288-478)
T1 construct: K+-dependent Na+/Ca2+ exchanger 2 (NCKX2), rat (NM_031743.2; O54701), cytoplasmic loop region, amino acids 288-478, in pcDNA3.1(+); also called WT; source: HEK293, transfected (calcium phosphate), in lysate; not shown: c-myc, N-terminal, kept
T1 sequence (looked up): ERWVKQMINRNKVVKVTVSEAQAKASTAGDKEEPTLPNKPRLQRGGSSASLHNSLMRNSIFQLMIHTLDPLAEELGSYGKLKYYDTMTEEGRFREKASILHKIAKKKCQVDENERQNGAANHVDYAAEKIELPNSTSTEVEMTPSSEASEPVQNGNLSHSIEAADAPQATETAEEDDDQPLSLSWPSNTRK

[2] = molecular target: T2, c-myc-tagged cytoplasmic loop of NCKX2, Y371A mutant (rat, UniProt O54701-1 288-478, Y371A)
T2 construct: K+-dependent Na+/Ca2+ exchanger 2 (NCKX2), rat (NM_031743.2; O54701), cytoplasmic loop region, amino acids 288-478, with Y371A; also called myc-NCKX2-loop Y371A; source: HEK293, transfected (calcium phosphate), in lysate; not shown: c-myc, N-terminal, kept
T2 sequence (looked up): T1 sequence (looked up) with Y84A

[3] = molecular target: T3, c-myc-tagged cytoplasmic loop of NCKX2, phosphomimetic mutant Y365E (rat, UniProt O54701-1 288-478, Y365E)
T3 construct: K+-dependent Na+/Ca2+ exchanger 2 (NCKX2), rat (NM_031743.2; O54701), cytoplasmic loop region, amino acids 288-478, with Y365E; also called myc-NCKX2-loop Y365E; source: HEK293, transfected (calcium phosphate), in lysate; not shown: c-myc, N-terminal, kept
T3 sequence (looked up): T1 sequence (looked up) with Y78E

B1: HA-tagged AP2M1 (μ subunit of adaptor protein complex 2) (natural protein, UniProt P84092 1-435, looked up)
chain: MIGGLFIYNHKGEVLISRVYRDDIGRNAVDAFRVNVIHARQQVRSPVTNIARTSFFHVKRSNIWLAAVTKQNVNAAMVFEFLYKMCDVMAAYFGKISEENIKNNFVLIYELLDEILDFGYPQNSETGALKTFITQQGIKSQHQTKEEQSQITSQVTGQIGWRREGIKYRRNELFLDVLESVNLLMSPQGQVLSAHVSGRVVMKSYLSGMPECKFGMNDKIVIEKQGKGTADETSKSGKQSIAIDDCTFHQCVRLSKFDSERSISFIPPDGEFELMRYRTTKDIILPFRVIPLVREVGRTKLEVKVVIKSNFKPSLLAQKIEVRIPTPLNTSGVQVICMKGKAKYKASENAIVWKIKRMAGMKESQISAEIELLPTNDKKKWARPPISMNFEVPFAPSGLKVRYLKVFEPKLNYSDHDVIKWVRYIGRSGIYETRC
notes: AP2M1, μ subunit of adaptor protein complex 2 (NM_053837.1; P84092), cloned into pcDNA3; gift from Dr. Ryan (Kim and Ryan, 2009); also called HA-AP2M1; μ subunit of AP-2; source: HEK293, transfected (calcium phosphate), in lysate
amount of coimmunoprecipitated HA-AP2M1 [1]: 36.9 | amount of coimmunoprecipitated HA-AP2M1 [2]: 41.6 | amount of coimmunoprecipitated HA-AP2M1 [3]: 7.83
